According to the DeepSol protein solubility set:

Assay: soluble on expression in E. coli; label from the status in PepcDB or PDB records

Row | Sequence | soluble on expression in E. coli
1 | SSFQGPLDATVVVNLQSPTLEEKNEFPEDLRTELMQTLGSYGTIVLVRINQGQMLVTFADSHSALSVLDVDGMKVKGRAVKI | soluble
2 | SSHGIGDALGSDWPGREPRATDNRGQYLKGESWVSGRPGHPKLREVGFLRGEPPSAGPKGLGTWSELSHRYFELGQLPYAYPYYKVLPEGELRCVSLDRFNPGLSEETVEDEKTLKFFRWSADSRGVTGSAIFQISKSLMP | soluble
3 | SSLCEDMLLCNYRKCRIKLSGYAWVTACSHIFCDQHGSGEFSRSPAICPACNSTLSGKLDIVRTELSPSEEYKAMVLAGLRPEIVLDISSRALAFWTYQVHQERLYQEYNFSKAEGHLKQMEKIYTQQIQSKDVELTSMKGEVTSMKKVLEEYKKKFSDISEKLMERNRQYQKLQGLYDSLRLRNITIANHEGTLEPSMIAQSGVLGFPLGNNSKFPLDNTPVRNRGDGDGDFQFRPFFAGSPTAPEPSNSFFSFVSPSRELEQQQVSSRAFKVKRI | not soluble
4 | SSLENVVYNLVNAGHFDGRAGELPCAVIGEKVIAKIQNEDVVVFKNNTPFPTNVAVELFAKRSIRPHPELKLFRNLNIDVCWSHVLWDYAKDSVFCSSTYKVCKYTDLQCIESLNVLFDGRDNGALEAFKKCRNGVYINTTKIKSLSMIKGPQRADLNGVVVEKVGDSDVEFWFAVRKDGDDVIFSRTGSLEPSHYRSPQGNPGGNRVGDLSGNEALARGTIFTQSRLLSSFTPRSEMEKDFMDLDDDVFIAKYSLQDYAFEHVVYGSFNQKIIGGLHLLIGLARRQQKSNLVIQEFVTYDSSIHSYLITDENSGSSKSVCTVIDLLLDDFVDIVKSLNLKCVSKVVNVNVDFKDFQFMLWCNEEKVMTF | soluble
5 | SSNEHGPVKRSSQSTLERSEQQIRAASSLEELLRITHSEDWKLWRCRLRLKSFTSMDSRSASHRSTRFAATFYDIETLKVIDEEWQRTQCSPRETCVEVASELGKSTNTFFKPPCVNVFRCGGCCNEESLICMNTSTSYISKQLFEISVPLTSVPELVPVKVANHTGCKCLPTAPRHPYSIIRRSIQIPEEDRCSHSKKLCPIDMLWDSNKCKCVLQEENPLAGTEDHSHLQEPALCGPHMMFDEDRCECVCKTPCPKDLIQHPKNCSCFECKESLETCCQKHKLFHPDTCSCEDRCPFHTRPCASGKTACAKHCRFPKEKRAAQGPHSRKNP | soluble
6 | SSSISELYDVTWEEMRDKLRKWREENYRNSEQIVDVGEELINEHASKLGDDIWIIYEQVMIAALDCSRDDLAWSCLQELKRQFPDSHRVKRLAGMRLEALERYDDANKLYDSILQDDPTNTAARKRKICILRAQGKSSEAIRELNEYLEQFVGDQEAWHELSELYINEHDYAKAAFCLEELMMTNPHNHLYCEQYAEVKYTQGGLENLELARKYFAQALKLNNRNMRALFGLYMSASHIAASPKVSAKVKKDNVKYAAWAAAQISRAYQMAGRGKKENKCSVKAVEEMLESLQITMS | soluble
7 | STDDKDVLRDVWFGRIPTCFTLYQDEITEREAEPYYLLLPRVSYLTLVTDKVKKHFQKVMRQEDVSEIWFEYEGTPLKWHYPIGLLFDLLASSSALPWNITVHFKSFPEKDLLHCPCKDAVEAHFMSCVKEADALKHKSQVINEMQRKDHKQLWMGLQNDLTSFGPSTGNSWNTLQKKMDFVISLLEYIRPQLNGLSFRSCSVLWPQMDSCIPLEIS | soluble
8 | STDVHRRFLQLLMTHGVLEEWDVKRLQTHCYKVHDRSATVDKLEDFINNINSVLESLYIEIKRGVTEDDGRPIYALVNLATTSISKMATDFAENELDLFRKALELIIDSETGFASSTNILNLVDQLKGKKMRKKEAEQVLQKFVQNKWLIEKEGEFTLHGRAILEMEQYIRETYPDAVKICNICHSLLIQGQSCETCGIRMHLPCVAKYFQSNAEPRCPHCNDYWPHEIPKVFDPEKERESGVLKSNKKSLRSRQH | soluble
9 | STMSGYLYRSKGSKKPWKHLWFVIKNKVLYTYAASEDVAALESQPLLGFTVTLVKDENSESKVFQLLHKGMVFYVFKADDAHSTQRWIDAFQEGTV | soluble
10 | STSTNNELTVSMMGTSTKEEVVSKVDEEDDDSSSDSDMDYGSDSEWAGYNVLAETEPEWDVDSFDGHEFKINPRVRQMYRSQELYDKYYNNRLKAFENKGFLSDHLNGIYDVYLDEKMDGYNSTRDFMAELANVCVKKHNETKGNTLELVNVVRATERGAATWRLYITFMAREFPDGPLVEYQAKVIKFLGVKDPFPVLCRAAPKPGI | soluble
11 | STTEEESLSAAEEGYNVQRDYWRQAEESDGFDIENIKLPPGMHGRVMGLITYNCQLCYRYPFPVLVKLYAKFGLHRYNLIKGTSFELAALMKFNMLQNYMSSFYMTLLAHDPDPAASSSQKTFQVRVDEQQFGTLGINCSIARPKHEGDLLEVSTKTPFIPHFHGGALGDGIFKGELPDCLSDDALNALMEAVSKDELPEHVLDDALYARAGGIFQGELPDWPSDDALNDGKRFYMLKESEWQATDWISMYLELVITTTDRSITEPEVLSKLEIVKVAIETATKDEEPSNERLKAYRAHFYITFKGLAEPRAPRQVFEIGEHVERQAIVRRVMGHRGDLTLKGKLCGGQYIKRRSLALKSGEESPNCKKQTRVG | soluble
12 | STYEYKRELREGARGKWINLRQHLNSGTRLEKELIKVDRQIDKKAAEIKEIEDLLFKIEQYKAENNIR | not soluble
13 | SVRRKSCIVKEMEKMKNKREEKRAQNSELRIKRAQEYDSSFPNWEFARMIKEFRVTMECSPLTVTDPIEEHRICVCVRKRPLNKQELAKKEIDVISVPSKCLLLVHEPKLKVDLTKYLENQAFCFDFAFDETASNEVVYRFTARPLVQTIFEGGKATCFAYGQTGSGKTHTMGGDLSGKSQNASKGIYAMASRDVFLLKNQPRYRNLNLEVYVTFFEIYNGKVFDLLNKKAKLRVLEDSRQQVQVVGLQEYLVTCADDVIKMINMGSACRTSGQTFANSNSSRSHACFQILLRTKGRLHGKFSLVDLAGNERGADTSSADRQTRMEGAEINKSLLALKECIRALGQNKAHTPFRESKLTQVLRDSFIGENSRTCMIAMISPGISSCEYTLNTLRYADRVKELSHHHHHHH | soluble
14 | SWMEEVIKLCGRELVRAQIAICGMSTWS | soluble
15 | SWSGLLPPGLNESDAESNSEDEATLENSGLNLQEDKEDESIRKTEIIDFSTDEPKTETESNVNAYEECPSGIPIDMWNKFQELHKKHSEQKSTTSRFRGKRRKRSRKDKLKNEKELHSEPSSNETQWKELTQYFGVNDRFDPPVKRKKVEKSGLEKRIDQAVEEWNIEKAEELSNQLATRELGVKIAKAVACHNFVKAKKEVENSQAARKKKKLAWGFEAKKRWETKSNMGYM | soluble
16 | SYHLDTTAPPPTNLSTLPNNTLFHLWRPRAHILPAEGQIGDPCAHYTDPSTGLFHVGFLHDGDGIAGATTANLATYTDTSDNGSFLIQPGGKNDPVAVFDGAVIPVGVNNTPTLLYTSVSFLPIHWSIPYTRGSETQSLAVARDGGRRFDKLDQGPVIADHPFAVDVTAFRAPFVFRSARLDVLLSLDEEVARNETAVQQAVDGWTEKNAPWYVAVSGGVHGVGPAQFLYRQNGGNASEFQYWEYLGEWWQEATNSSWGDEGTWAGRWGFNFETGNVLFLTEEGHDPQTGEVFVTLGTEGSGLPIVPQVSSIHDMLWAAGEVGVGSEQEGAKVEFSPSMAGFLDWGFSAYAAAGKVLPASSAVSKTSGVEVDRYVSFVWLTGDQYEQADGFPTAQQGWTGSLLLPRELKVQTVENVVDNELVREEGVSWVVGESDNQTATLRTLGITIARETKAALLANGSVTAEEDRTLQTAAVVPFAQSPSSKFFVLTAQLEFPASARSSPLQSGFEILASELERTAIYYQFSNESLVVDRSQTSAAAPTNPGLDSFTESGKLRLFDVIENGQEQVETLDLTVVVDNAVVEVYANGRFALSTWARSWYDNSTQIRFFHNGEGEVQFRNVSVSEGLYNAWPER | soluble
17 | SYLGSEFDNVELKDLANVLSFGEAKLGDNGQKFNFLFHTASSNVWVPSIKCTSESCESKNHYDSSKSKTYEKDDTPVKLTSKAGTISGIFSKDLVTIGKLSVPYKFIEMTEIVGFEPFYSESDVDGVFGLGWKDLSIGSIDPYIVELKTQNKIEQAVYSIYLPPENKNKGYLTIGGIEERFFDGPLNYEKLNHDLMWQVDLDVHFGNVSSKKANVILDSATSVITVPTEFFNQFVESASVFKVPFLSLYVTTCGNTKLPTLEYRSPNKVYTLEPKQYLEPLENIFSALCMLNIVPIDLEKNTFVLGDPFMRKYFTVYDYDNHTVGFALAKNL | soluble
18 | SYPSLFAPLDLGFTTLKNRVLMGSMHTGLEEYPDGAERLAAFYAERARHGVALIVSGGIAPDLTGVGMEGGAMLNDASQIPHHRTITEAVHQEGGKIALQILHTGRYSYQPHLVAPSALQAPINRFVPHELSHEEILQLIDNFARCAQLAREAGYDGVEVMGSEGYLINEFLTLRTNQRSDQWGGDYRNRMRFAVEVVRAVRERVGNDFIIIYRLSMLDLVEDGGTFAETVELAQAIEAAGATIINTGIGWHEARIPTIATPVPRGAFSWVTRKLKGHVSLPLVTTNRINDPQVADDILSRGDADMVSMARPFLADAELLSKAQSGRADEINTCIGCNQACLDQIFVGKVTSCLVNPRACHETKMPILPAVQKKNLAVVGAGPAGLAFAINAAARGHQVTLFDAHSEIGGQFNIAKQIPGKEEFYETLRYYRRMIEVTGVTLKLNHTVTADQLQAFDETILASGIVPRTPPIDGIDHPKVLSYLDVLRDKAPVGNKVAIIGCGGIGFDTAMYLSQPGESTSQNIAGFCNEWGIDSSLQQAGGLSPQGMQIPRSPRQIVMLQRKASKPGQGLGKTTGWIHRTTLLSRGVKMIPGVSYQKIDDDGLHVVINGETQVLAVDNVVICAGQEPNRALAQPLIDSGKTVHLIGGCDVAMELDARRAIAQGTRLALEI | soluble
19 | TAELKICRVNRNSGSCLGGDEIFLLCDKVQKEDIEVYFTGPGWEARGSFSQADVHRQVAIVFRTPPYADPSLQAPVRVSMQLRRPSDRELSEPMEFQYLPDTDDRHRIEEKRKRTYETFKSIMKKSPFNGPTEPRP | soluble
20 | TAGFSLNVLTINTHKGFTAFNRRFILPELRDAVRSVSADIVCLQEVMGAHEVHPLHIENWPDTTHYEFLADTMWSDYAYGRNAVYPEGHHGNAVLSRFPIEYYENRDISVGNGEKRGLLYCRIVPPRSGITIHVICVHLGLRADQRQAQLTMLAEWVNTLPAGEPVVVAGDFNDWRQQANQPLKAQAGLEEIFTRARGRPARTFPVSFPLLRLDRIYVKNAHASRPKALALKQWRHLSDHAPLSVEIHL | not soluble
21 | TAPTLAEEVKQQSDGSVIIEGSANLRDLNKLFNWHLPINEVRTFNGLILEHLEKIPIEGTQFRLNQLNITVLEVADNMVKKVKVELIE | soluble
22 | TAYLGPAGSWTHQACLDLYGADGLVPLSREALFAAYADGKVERACVPVATSVVGLTPYMEDVLALPRVVVVAEYPKMLGYSLLARPGTRREDIKEVHAHPVAFEEVRPWLEREMPGARRVPAASGGAAAQAVAASATQDKASFGPRVGASVYQLVSLADGIEEGPHNVTRWWVLGRDMP | not soluble
23 | TDLSQRPRRLRKSPALRAMFEETTLSLNDLVLPIFVEEEIDDYKAVEAMPGVMRIPEKHLAREIERIANAGIRSVMTFGISHHTDETGSDAWREDGLVARMSRICKQTVPEMIVMSDTCFCEYTSHGHCGVLKEHGVDNDATLENLGKQAVVAAAAGADFIAPSAAMDGQVQAIRQALDAAGFKDTAIMSYSTKFASSFYGPFREAAGSALKGDRKSYQMNPMNRREAIRESLLDEAQGADCLMVKPAGAYLDIVRELRERTELPIGAYQVSGEYAMIKFAALAGAIDEEKVVLESLGSIKRAGADLIFSYFALDLAEKKILR | soluble
24 | TEERLKEIEAKYDEIAKDWPKKVKHVLHEEHELELTRVQVYTCDKCEEEGTIWSYHCDECDFDLHAKCALNEDTKE | soluble
